Results from patent US20200369764A1 (INNATE PHARMA, published 2020).

Columns and labels:
[1] = biological target: T1, Human Siglec-9 (human, UniProt Q9Y336 18-463); experiment: flow cytometry, fresh purified human NK cells (CD3-/CD56+), isotype control plot
T1 construct: on transfected CHO cells, YTS Siglec-9* cells, or native on primary NK cells and moDC (see assay); also called huSiglec-9; CD329

[2] = biological target: Human Siglec-7 (human) (UniProt Q9Y286); experiment: as above
[3] = biological target: T1, Human Siglec-9; experiment: flow cytometry titration on moDC, neuraminidase-treated against untreated
Protocol: moDC were desialylated for 2 hours with 25 mU neuraminidase (Roche Diagnostics).
Binding on moDCs and neuraminidase treated moDCs was tested in a titration experiment by flow cytometry. Cells were incubated 1h in Staining Buffer (SB) with primary antibodies at 10 μg/ml and a series of dilution of 1:10. They were washed two times with SB, then incubated 30 min with a Goat F(ab′)² Anti-Human IgG (Fc) PE (Jackson ImmunoResearch), and washed twice with SB.

T1 sequence (Q9Y336 18-463): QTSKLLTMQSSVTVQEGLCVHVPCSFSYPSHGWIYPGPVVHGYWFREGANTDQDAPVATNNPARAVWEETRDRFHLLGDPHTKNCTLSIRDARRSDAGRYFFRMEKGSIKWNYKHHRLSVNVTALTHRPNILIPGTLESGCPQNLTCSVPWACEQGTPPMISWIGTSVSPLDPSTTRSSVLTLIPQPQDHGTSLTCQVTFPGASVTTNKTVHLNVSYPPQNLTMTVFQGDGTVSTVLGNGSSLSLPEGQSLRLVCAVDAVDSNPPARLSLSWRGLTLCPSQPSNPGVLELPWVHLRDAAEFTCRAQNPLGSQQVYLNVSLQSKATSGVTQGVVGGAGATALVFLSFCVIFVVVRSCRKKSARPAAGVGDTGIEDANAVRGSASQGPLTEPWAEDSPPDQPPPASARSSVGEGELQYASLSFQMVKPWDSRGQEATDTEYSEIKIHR
Sequence of Human Siglec-7 (human) (Q9Y286 19-467): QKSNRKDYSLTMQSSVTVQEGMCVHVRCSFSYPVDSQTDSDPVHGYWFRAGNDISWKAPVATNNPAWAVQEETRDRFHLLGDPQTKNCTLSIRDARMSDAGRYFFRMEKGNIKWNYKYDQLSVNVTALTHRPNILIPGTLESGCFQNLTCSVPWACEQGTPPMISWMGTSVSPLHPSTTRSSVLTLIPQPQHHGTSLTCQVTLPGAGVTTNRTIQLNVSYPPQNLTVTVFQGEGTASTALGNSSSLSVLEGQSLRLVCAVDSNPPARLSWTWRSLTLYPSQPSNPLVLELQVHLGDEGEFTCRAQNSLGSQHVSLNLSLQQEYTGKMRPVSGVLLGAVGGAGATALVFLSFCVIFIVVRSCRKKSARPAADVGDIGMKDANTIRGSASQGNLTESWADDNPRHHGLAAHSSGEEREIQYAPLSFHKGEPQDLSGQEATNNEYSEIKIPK

In the case of Isotype control - PE (antibody), the % of NK cells in Q2 (APC positive and PE positive) [1] is reported as 0.34% and the % of NK cells in Q3 (PE positive, APC negative) [1] is reported as 2.54%.

Isotype control - APC (antibody) showed a % of NK cells in Q1 (APC positive, PE negative) [2] of 0.975% and a % of NK cells in Q2 (APC positive and PE positive) [2] of 0.34%.

B1: mAbC (antibody, V domains shown)
VH: QIQLVQSGPELKKPGETVKISCKASGYTFTNYEMNWVKEAPGKGLKWMGWINTYTGESTYADDFKGRFAFSLETSASTVYLQINNLKDEDVATYFCVRDDYGRSYGFAYWGQGTLVTVSA
VL: NIVLTQSPASLTVSLGQRANISCRASESVDSYGNSFMHWYQQKPGQPPKLLIYLASKLESGVPARFSGSGSRTDFTLTIDPVETDDAATYYCHQNNEDPPWTFGGGTKLEIK
notes: chimeric human IgG1, heavy chain N297Q (Kabat EU numbering)
With B1 the “fold enhancement of EC50 on moDC after neuraminidase treatment” value (“fold enhancement of EC50 on moDC” for short) [3] was 10 fold.

B2: mAbA (antibody, V domains shown)
VH: QVQLQQPGAELVKPGSPVKLSCKASYFTFTSYWMHWVRQRPGQGLEWIGEINPSNGHTNYNEKFESKATLTVDRSSSTAYMQLSSLTSEDSAVFYCANGVESYDFDDALDYWGQGTSVTVSS
VL: DIQMTQTTSSLSASLGDRVTISCRASQDINNYLNWYQQKPDGTIKLLIYYTSRLHSGVPSRFSGSGSGTDYSLTINNLEQEDIATYFCQQGNTLPFTFGGGTKLEIK
notes: as for B1
With B2 the “fold enhancement of EC50 on moDC” value [3] was 10 fold.

B3: mAbD (antibody, V domains shown)
VH: QIQLVQSGPELKKPGETVKISCKASGYTFTDYSMHWVKQAPGKGLKWMGWIITETGEPTYADDFRGRFAFSLETSANTAYLQINNLKNEDTATYFCARDFDGYWGQGTTLTVSS
VL: DILMTQSPASLSASVGETVTITCRASENIYSYLAWYQQKRGKSPQFLVYNAKTLTEGVPSRFRGSGSGTQFSLKINSLQPEDFGTYYCQHHYGFPWTFGGGTKLEIK
notes: as for B1
With B3 the “fold enhancement of EC50 on moDC” value [3] was 10 fold.
